Measurements published in publication PMC7049810 (2020).
Values belong to the binder of their own block, whether it stands above or below them.

B2: MepS (enzyme)
chain: CSANNTAKNMHPETRAVGSETSSLQASQDEFENLVRNVDVKSRIMDQYADWKGVRYRLGGSTKKGIDCSGFVQRTFREQFGLELPRSTYEQQEMGKSVSRSNLRTGDLVLFRAGSTGRHVGIYIGNNQFVHASTSSGVIISSMNEPYWKKRYNEARRVLSRS
modifications: where used as fl-MepS in MST: NT647 RED-NHS dye on amines

Columns and labels:
Test in all cases: MST
PBP4, native, purified = molecular target: T1, PBP4, native, purified (Escherichia coli, UniProt P24228 21-477, where used as the labelled protein in MST: NT647 RED-NHS dye on amines)
T1 chain: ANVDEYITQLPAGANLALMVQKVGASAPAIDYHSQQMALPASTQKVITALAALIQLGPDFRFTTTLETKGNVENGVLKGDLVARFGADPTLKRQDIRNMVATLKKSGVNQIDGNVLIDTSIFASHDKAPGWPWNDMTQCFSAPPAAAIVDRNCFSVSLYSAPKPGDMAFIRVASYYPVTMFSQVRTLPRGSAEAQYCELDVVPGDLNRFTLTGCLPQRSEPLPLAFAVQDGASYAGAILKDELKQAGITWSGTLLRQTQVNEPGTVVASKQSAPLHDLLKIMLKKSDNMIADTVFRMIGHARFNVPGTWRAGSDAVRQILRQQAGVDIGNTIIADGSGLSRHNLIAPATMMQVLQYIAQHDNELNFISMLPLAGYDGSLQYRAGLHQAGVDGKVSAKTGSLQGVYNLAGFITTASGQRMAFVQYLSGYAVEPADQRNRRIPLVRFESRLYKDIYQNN

PBP1A, purified = molecular target: T2, PBP1A, purified (Escherichia coli, UniProt P02918 1-850, NT647 RED-NHS dye on amines (PBP1A was the labelled protein in all MST assays))
T2 chain: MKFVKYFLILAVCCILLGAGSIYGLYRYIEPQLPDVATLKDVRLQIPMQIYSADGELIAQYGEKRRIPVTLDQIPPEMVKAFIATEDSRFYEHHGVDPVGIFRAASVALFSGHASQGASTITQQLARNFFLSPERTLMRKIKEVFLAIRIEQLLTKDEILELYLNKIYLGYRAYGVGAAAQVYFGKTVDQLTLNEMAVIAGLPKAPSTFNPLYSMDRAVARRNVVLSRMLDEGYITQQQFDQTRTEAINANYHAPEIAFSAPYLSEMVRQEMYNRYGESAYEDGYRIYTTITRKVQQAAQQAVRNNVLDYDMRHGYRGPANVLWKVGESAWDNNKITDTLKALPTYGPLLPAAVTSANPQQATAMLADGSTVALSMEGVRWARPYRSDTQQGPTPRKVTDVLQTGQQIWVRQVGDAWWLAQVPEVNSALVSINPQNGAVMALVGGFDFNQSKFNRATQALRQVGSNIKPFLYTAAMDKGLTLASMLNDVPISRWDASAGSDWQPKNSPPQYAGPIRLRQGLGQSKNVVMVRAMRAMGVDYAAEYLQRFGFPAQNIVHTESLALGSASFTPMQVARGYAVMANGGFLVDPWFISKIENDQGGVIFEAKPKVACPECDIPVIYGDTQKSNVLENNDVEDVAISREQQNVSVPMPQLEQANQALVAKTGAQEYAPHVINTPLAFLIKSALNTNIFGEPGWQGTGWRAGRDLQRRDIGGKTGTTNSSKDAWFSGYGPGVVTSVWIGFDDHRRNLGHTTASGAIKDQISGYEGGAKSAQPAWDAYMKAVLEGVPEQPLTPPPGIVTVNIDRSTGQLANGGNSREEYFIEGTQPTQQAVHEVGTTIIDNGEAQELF

MepS = molecular target: B2

Kd (PBP4, native, purified): 332 nM
B1: PBP7, purified (enzyme)
chain: KTAAATTASQPEIASGSAMIVDLNTNKVIYSNHPDLVRPIASISKLMTAMVVLDARLPLDEKLKVDISQTPEMKGVYSRVRLNSEISRKDMLLLALMSSENRAAASLAHHYPGGYKAFIKAMNAKAKSLGMNNTRFVEPTGLSVHNVSTARDLTKLLIASKQYPLIGQLSTTREDMATFSNPTYTLPFRNTNHLVYRDNWNIQLTKTGFTNAAGHCLVMRTVINNKPVALVVMDAFGKYTHFADASRLRTWIETGKVMPVPAAALSYKKQKAAQMAAAGQTAQND
modifications: where used as the labelled protein in MST: NT647 RED-NHS dye on amines

Binder: B2
Kd (PBP1A, purified): 91 nM

Kd (MepS): 1180 nM
B3: MepM (enzyme)
chain: YHRDATPIVKTIELEQNEIRSLLPEASEPIDQAAQEDEAIPQDELDDKIAGEAGVHEYVVSTGDTLSSILNQYGIDMGDITQLAAADKELRNLKIGQQLSWTLTADGELQRLTWEVSRRETRTYDRTAANGFKMTSEMQQGEWVNNLLKGTVGGSFVASARNAGLTSAEVSAVIKAMQWQMDFRKLKKGDEFAVLMSREMLDGKREQSQLLGVRLRSEGKDYYAIRAEDGKFYDRNGTGLAKGFLRFPTAKQFRISSNFNPRRTNPVTGRVAPHRGVDFAMPQGTPVLSVGDGEVVVAKRSGAAGYYVAIRHGRSYTTRYMHLRKILVKPGQKVKRGDRIALSGNTGRSTGPHLHYEVWINQQAVNPLTAKLPRTEGLTGSDRREFLAQAKEIVPQLRFD
